Data reported in patent publication US6699683B1, “Active site of human gamma glutamy hydrolase” (Health Research Incorporated, priority 1996, dated 2004).
Substitutions are numbered along the chain they refer to. Names may count otherwise. Values belong to the molecule of their own block, whether it stands above or below them.

How the values were obtained:
Format in all cases: biochemical
[1] = target: T1, human gamma glutamyl hydrolase (hGH) (Homo sapiens, UniProt Q92820, C134A); assay: hGH activity assay with 4-NH2-10-CH3PteGlu2 as substrate (Km, Vmax, specific activity) of E. coli-expressed purified proteins; details: assayed with either 4-NH2-10-CH3PteGlu2 or the better substrate 4-NH2-10-CH3PteGlu
T1 construct: A cDNA encoding the 294 amino acid mature form of hGH protein with an N-terminal methionine preceding the first arginine residue; added N-terminal methionine (start codon) (N); made in house; host or cells: E. coli BL21(DE3)pLysS, pET-24a (pET-hGH)
T1 sequence (Q92820 with tags, fused parts or gaps C134A): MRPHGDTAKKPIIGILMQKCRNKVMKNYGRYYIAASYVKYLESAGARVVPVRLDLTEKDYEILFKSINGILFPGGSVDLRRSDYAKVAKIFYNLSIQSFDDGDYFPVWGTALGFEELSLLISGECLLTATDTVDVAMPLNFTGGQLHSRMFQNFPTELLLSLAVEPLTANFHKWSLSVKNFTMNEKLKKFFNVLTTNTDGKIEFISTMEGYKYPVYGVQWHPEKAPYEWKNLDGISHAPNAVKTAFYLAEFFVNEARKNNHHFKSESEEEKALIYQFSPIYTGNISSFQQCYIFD
Protocol: (§1) Mutant plasmids were used to transform E. colistrain BL21(DE3)pLysS to kanamycin resistance. Cultures (20 ml) were grown for 16 hours at 37° C., 225 rpm in tryptone-phosphate broth (Moore et al. 1993), containing 30 μg/ml kanamycin and 34 μg/ml chloramphenicol. An aliquot (6 ml) of this culture was used to inoculate 500 ml of the same medium. Cultures were incubated at 27° C., 225 rpm until the OD600nm was 0.5-0.6. Isopropyl β-D-thiogalactoside (IPTG) was added to a final concentration of 1 mM and cultures were incubated for a further 3 hours. Cells were harvested by centrifugation and stored at −80° C. Cells from 1 liter of broth were resuspended in 50 ml of 50 mM Tris/HCl pH 7.5 buffer containing 500 mM NaCl and Complete protease inhibitor cocktail (Boehringer Mannheim, Indianapolis, Ind.). The mixture was sonicated and clarified by centrifugation at 20,000 g for 30 minutes at 4° C. A 20-60% ammonium sulfate precipitate was resuspended in 50 mM sodium acetate, pH 5.8, 1 mM octyl-β-D-glucoside (OBG) and 5% glycerol (buffer A). After dialysis at 4° C. against buffer A and clarification by centrifugation at 30,000 g, 4° C. for 120 minutes, the dialysate was applied in two aliquots to a Protein Pak SP colummn (1.0 cm×10 cm, Waters Division of Millipore Corp., Milford, Mass.) equilibrated in buffer A. The protein was eluted (1 ml/min) with a linear gradient in buffer A of 0 to 1M NaCl over 60 minutes. Fractions were assayed for hGH activity or for hGH protein by Western blot. Fractions containing hGH were pooled and frozen at −80° C. Wildtype hGH and the C19A, C110A, and C290A mutants eluted as two peaks whereas the C124A mutant eluted as a single peak coincident with the first peak for the other hGH proteins. […] There was 8-10 times more hGH protein in peak 1 than in peak 2. A statistically significant amount (40-82%) of enzyme activity of proteins purified on the SP column was lost when stored either at 4° C. or at −80° C. Thawed aliquots of peak 1 were incubated for 2 hours at 4° C. with 2 ml of pHMB agarose (0.8 μmole/ml agarose) (Sigma Chemical, St. Louis, Mo.) equilibrated in 50 mM sodium acetate pH 5.8, 20 mM OBG, 500 mM NaCl (buffer B). The matrix was poured into a column (0.75 cm×4.5 cm) and washed with buffer B. hGH protein was eluted with buffer B containing additionally 10 mM dithiothreitol and 50 mM β-mercaptoethanol. EDTA (1 mM final) was added to each fraction to inhibit remaining proteases. Fractions containing hGH were pooled and stored at −80° C.
(§2) Km and Vmax activities were measured using variable 4-NH2-10-CH3PteGlu2 substrate concentrations. Specific activities were measured using 200 μM 4-NH2-10-CH3PteGlu2 for 5 minutes.

[2] = tested on: human gamma glutamyl hydrolase (hGH); assay: as above
Protocol: as §1, §2

[3] = target: T2, human gamma glutamyl hydrolase (hGH) (Homo sapiens, UniProt Q92820, C134A); assay: hGH activity in chromatography fractions measured with 4-NH2-10-CH3PteGlu5; details: substrate 4-NH2-10-CH3PteGlu5
T2 construct: A cDNA encoding the 294 amino acid mature form of hGH protein with an N-terminal methionine preceding the first arginine residue; added N-terminal methionine (start codon) (N); made in house; host or cells: E. coli BL21(DE3)pLysS, pET-24a (pET-hGH)
T2 sequence (Q92820 25-318 C134A): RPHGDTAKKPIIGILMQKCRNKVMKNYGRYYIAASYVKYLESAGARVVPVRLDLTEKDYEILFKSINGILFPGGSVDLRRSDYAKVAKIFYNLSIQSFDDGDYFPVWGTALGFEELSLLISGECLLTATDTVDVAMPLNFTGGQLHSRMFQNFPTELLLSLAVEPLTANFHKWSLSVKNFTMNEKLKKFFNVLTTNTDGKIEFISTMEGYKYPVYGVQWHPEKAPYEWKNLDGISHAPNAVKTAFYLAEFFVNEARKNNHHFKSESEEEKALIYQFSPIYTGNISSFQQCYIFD
Protocol: Mutant plasmids were used to transform E. colistrain BL21(DE3)pLysS to kanamycin resistance. Cultures (20 ml) were grown for 16 hours at 37° C., 225 rpm in tryptone-phosphate broth (Moore et al. 1993), containing 30 μg/ml kanamycin and 34 μg/ml chloramphenicol. An aliquot (6 ml) of this culture was used to inoculate 500 ml of the same medium. Cultures were incubated at 27° C., 225 rpm until the OD600nm was 0.5-0.6. Isopropyl β-D-thiogalactoside (IPTG) was added to a final concentration of 1 mM and cultures were incubated for a further 3 hours. Cells were harvested by centrifugation and stored at −80° C. Cells from 1 liter of broth were resuspended in 50 ml of 50 mM Tris/HCl pH 7.5 buffer containing 500 mM NaCl and Complete protease inhibitor cocktail (Boehringer Mannheim, Indianapolis, Ind.). The mixture was sonicated and clarified by centrifugation at 20,000 g for 30 minutes at 4° C. A 20-60% ammonium sulfate precipitate was resuspended in 50 mM sodium acetate, pH 5.8, 1 mM octyl-β-D-glucoside (OBG) and 5% glycerol (buffer A). […]

[4] = tested on: human gamma glutamyl hydrolase (hGH); assay: Activity of baculovirus-expressed hGH mutants on methotrexate polyglutamates; details: mutants expressed in the baculovirus system
From the text: This model for the active site of hGH has been tested by preparing the Cys110Ala, His220Ala, Glu222Ala, His171Ala, and His171Asn mutants of hGH. The mutants were expressed in the baculovirus system used for active hGH to facilitate the rapid expression and purification of the proteins. The mutant proteins were characterized for activity on methotrexate polyglutamates. […] The role of His171 in hGH has been examined by preparing the mutant His171Ala and the more conservative mutation His171Asn.

[5] = target: T3, human gamma glutamyl hydrolase (hGH) (Homo sapiens, UniProt Q92820, H195A); assay: Activity of His 171 to Ala hGH mutant from E. coli expression system
T3 construct: A cDNA encoding the 294 amino acid mature form of hGH protein with an N-terminal methionine preceding the first arginine residue; added N-terminal methionine (start codon) (N); made in house; host or cells: E. coli
T3 sequence (Q92820 25-318 H195A): T2 sequence (Q92820 25-318 C134A) with A110C, H171A
From the text: CPS contains two domains and catalyzes the synthesis of carbamoyl phosphate from bicarbonate, glutamine, and two molecules of MgATP. The smaller subunit is the site of glutamine hydrolysis to produce ammonia for deliver to the larger subunit. In agreement with the site directed mutagenesis study described above, the model predicts that Cys110 in hGH is analogous to Cys 269 in CPS, which functions as the active site nucleophile attacking the γ-carbonyl of glutamine to form a glutamyl thioester intermediate (Thoden et al. 1998). The model also predicts that His 220 and Glu 222 in hGH are the other two amino acids in the catalytic triad, corresponding to His 353 and Glu 355 in CPS. His 220 and Glu 222 are conserved in the human, rat and mouse glutamyl hydrolase sequences. In the proposed model for hGH, His 220 would activate Cys 110 and Glu 222 would stabilize the resulting positively charged imidizolium cation. […] His 312 in CPS points away from the catalytic triad and is involved in substrate binding not catalysis. When His 312 in CPS was conservatively mutated to Asn, the Km for the substrate was increased 200-fold (Miran et al. 1991). […] Further reinforcing evidence for this alignment model was obtained by running the Pfam HMM search program (Sonnhammer et al. 1998). The Pfam result has an E-value of 0.13 with the GATase model of class-I glutamine amidotransferases. […]

Activity relative to wildtype enzyme [1]: less than 0.01 % of wildtype enzyme
hGH activity in SP cation exchange column fractions [3]: no fractions contained hGH activity
B1: C110A: hGH variant with cysteine 110 replaced by alanine (protein)
chain: T2 sequence (Q92820 25-318 C134A) with K242N, T243P, N258K
Specific activity (nmol 4-NH2-10-CH3PteGlu2 hydrolyzed/min/mg protein) ([2]; 200 μM 4-NH2-10-CH3PteGlu2 for 5 minutes, mean ± SD of 3 experiments): no activity
hGH activity (in words) ([2]; purified E. coli-expressed proteins): no activity
Activity on methotrexate polyglutamates [4]: inactive

hGH activity (in words) [5]: lack of activity
B2: His171Ala: hGH mutant with His 171 changed to Ala (protein)
chain: T2 sequence (Q92820 25-318 C134A) with A110C, H171A, K242N, T243P, N258K
Activity on methotrexate tetraglutamate [4]: inactive
